The results in this text go back to PMC10978960, “Structure, function and substrate preferences of archaeal S-adenosyl-L-homocysteine hydrolases” (Communications Biology, 2024).

This data set deals with the molecule itself. Put plainly: crystal structure; co-crystals of the purified enzyme with co-purified NAD+ and a nucleoside ligand (inosine, SIH or adenosine), sitting drop vapour diffusion at room temperature or 22 °C; tetramers built in the respective space groups and analysed with PDBePISA.

B1: S-adenosyl-L-homocysteine hydrolase from Mus musculus (enzyme)
chain: MSDKLPYKVADIGLAAWGRKALDIAENEMPGLMRMREMYSASKPLKGARIAGCLHMTVETAVLIETLVALGAEVRWSSCNIFSTQDHAAAAIAKAGIPVFAWKGETDEEYLWCIEQTLHFKDGPLNMILDDGGDLTNLIHTKYPQLLSGIRGISEETTTGVHNLYKMMSNGILKVPAINVNDSVTKSKFDNLYGCRESLIDGIKRATDVMIAGKVAVVAGYGDVGKGCAQALRGFGARVIITEIDPINALQAAMEGYEVTTMDEACKEGNIFVTTTGCVDIILGRHFEQMKDDAIVCNIGHFDVEIDVKWLNENAVEKVNIKPQVDRYWLKNGRRIILLAEGRLVNLGCAMGHPSFVMSNSFTNQVMAQIELWTHPDKYPVGVHFLPKKLDEAVAEAHLGKLNVKLTKLTEKQAQYLGMPINGPFKPDHYRY
notes: S-adenosyl-L-homocysteine hydrolase (SAHH, adenosylhomocysteinase) of Mus musculus; gene bought as a synthetic DNA string and cloned into pET28a(+); The tag counts as kept because protein concentration was determined with the molecular weight including the His6-tag and no cleavage step is described; also called MmSAHH; SAHH; source: E. coli BL21-Gold(DE3), purified (nickel-NTA, PD-10 desalting)
Consider B1, for which the stoichiometry N (as a rule, the number of molecules, sites or subunits per partner or assembly) was determined as 4.

B2: S-adenosyl-L-homocysteine hydrolase from Methanococcus maripaludis (enzyme)
chain: MSNVKDMSLAPSGHLKMEWAKRHMPVLCRIAEEFKNDKPFEGLTIGMALHLEAKTAILAETLLEGGAKIVITGCNPLSTQDDVAAACVEKGMEVYAWRGETNEEYYENLNKVLDSNPDIIIDDGADLIFLIHTERTELIGKIMGGCEETTTGIIRLKSMAEEGALKFPVVNVNDAYTKHLFDNRYGTGQSAMDGIIRTTNLLIAGKNVVVGGYGWCGRGVASRAAGHGANVIITEVNPIRALEAKMDGFTVLKMEEAAKIGDIFVTTTGCKDILRMEHFLLMKDGAVLSNAGHFDNEINKNDLKELSKSVKEARFNIEEYDLGNKKIYLLGEGRLVNLACADGHPCEVMDMSFANQALSAKFIKENKGKLENEVYEIPYEQDFKIALLKLHSMGADIDELSPEQRKYLSDWKEGT
notes: S-adenosyl-L-homocysteine hydrolase (SAHH) of Methanococcus maripaludis; gene bought as a synthetic DNA string and cloned into pET28a(+); The tag counts as kept because protein concentration was determined with the molecular weight including the His6-tag and no cleavage step is described; also called MmaSAHH; SAHH; source: E. coli BL21-Gold(DE3), purified (nickel-NTA, PD-10 desalting)
For the protein B2, the “stoichiometry N” value was found to be 4.

B3: S-adenosyl-L-homocysteine hydrolase from Sulfolobus acidocaldarius (enzyme)
chain: MDYRVKDLSLAEQGRKQIEWAELHMPALMEIRKRFNAEKPLDGIRIGAVLHVTKETAVLVETLKAGGAEIALAGSNPLSTQDDVAAGLAKNGIHVYAWRGETEKDYYDNIREILKYEPHVIMDDGGDLHAYVHENNLTSKIVGGTEETTTGVIRLKAMEEEKVLKYPVIAVNNAFTKYLFDNRIGTGQSTIDGILRATNILIAGKVAVVIGYGWVGRGIASRFKGMGARVIVVESSPFRALEALMDGFDVMTMNRASEIGDIFVTATGNLNVVSRDHILRMKDGAVLANSGHFNVEIDVKGLKEISVETREVRQNLEEYKLRNGKRIYLLADGRLVNLVAAEGHPSEVMDLSFCNQALSVEHLIKNKGKLENKVYNVPIEIDEQVARLKLKALGIEIEELTIEQKEYIKQWKYGT
notes: S-adenosyl-L-homocysteine hydrolase (SAHH) of Sulfolobus acidocaldarius; gene bought as a synthetic DNA string and cloned into pET28a(+); The tag counts as kept because protein concentration was determined with the molecular weight including the His6-tag and no cleavage step is described; also called SacSAHH; SAHH; source: E. coli BL21-Gold(DE3), purified (nickel-NTA, PD-10 desalting)
In the case of B3, the “stoichiometry N” value is 4.

B4: S-adenosyl-L-homocysteine hydrolase from Pyrococcus furiosus (enzyme)
chain: MDCGKDYCVKDLSLAEEGWKKIDWVSRFMPVLQYIKREFEEKKPFKGVRIAATLHLEMKTAFLLLTLKAGGAEVSAAASNPLSTQDDVVAALAKAGVKVYAIRGESREQYYEFMHKALDIRPNIIIDDGADMISLVHKERQEMLDEIWGGSEETTTGVIRLRAMEKAGILKFPVIAVNDSYMKYLFDNRYGTGQSTWDGIMRATNLLIAGKNVVVVGYGWCGRGIAMRARGLGATVIVVEVDPIKALEARMDGFLVMDMKEAAKIGDIFVTATGNIKCIRREHFELMKDGAIMANAGHFDVEIWKPDLEKLAVEINNPRPNVTEYKLKDGRRLYLLADGRLVNLVAADGHPAEIMDMSFALQAKAAEYIKDNHERLEPKVYILPREIDEMVARIKLESMGIKIEELTEEQKKYLESWEHGT
notes: S-adenosyl-L-homocysteine hydrolase (SAHH) of Pyrococcus furiosus; gene bought as a synthetic DNA string and cloned into pET28a(+); The tag counts as kept because protein concentration was determined with the molecular weight including the His6-tag and no cleavage step is described; One sample was heated at 95 °C for 15 min before crystallisation (8QNO); also called PfuSAHH; SAHH; source: E. coli …
B4: the “stoichiometry N” value was found to be 4.
